In patent US20140194367A1, “AGROCYBE AEGERITA LECTIN AAL-2, AND ENCODING GENE THEREOF, PREPARATION METHOD THEREFOR AND APPLICATION THEREOF” (WUHAN ALPHA-OMEGA BIOLOGY TECHNOLOGY CO., LTD(CN), priority 2011, published 2014):
“Also recorded” adds a separate entry of the source.

Key:
H22 = test: AAL-2 induced apoptosis of H22 cells, Annexin V/PI flow cytometry; assay type: cell-based, mouse; details: 0.6, 1.2, 2.4 μmol/L; 24 hours and 36 hours; FIG. 6A
Protocol: (§1) The experiment detects the killing activity of Agrocybe aegerita lectin AAL-2 (isolated protein in example 1) to the two tumor cell lines (H22, Huh7). H22 and Huh7 cell lines (purchased from ATCC) are cultured in RPMI1640 medium and DMEM medium (contains 10% fetal bovine serum, […] and 100 U/mL penicillin). Different concentrations of Agrocybe aegerita lectin AAL-2 prepared in the example 1 are added into tumor cells (final concentration is 0.6 μmol/L, 1.2 μmol/L, 2.4 μmol/L) and cultured for 24 hours and 36 hours, respectively. The treated cells are digested into single cell, stained with the Annexin V/PI dye and detected by the flow cytometry.

Huh7 = test: AAL-2 induced apoptosis of Huh7 cells, Annexin V/PI flow cytometry; assay type: cell-based; details: 0.6, 1.2, 2.4 μmol/L; 24 hours and 36 hours; FIG. 6B
Protocol: as §1

[1] = test system: mouse hepatoma cell line H22; test: Tumor growth of H22 tumor bearing mice, in situ tumour injection; assay type: in vivo, BALB/c mice; details: 5 mg/kg in situ tumour injection every other day, 7 injections
Protocol: In this experiment, the BALB/c mice (6-8weeks old, 20 g) are used for the antitumour activity assay. 0.1 ml mouse hepatoma cell line H22 (1×10^7 cells/mL) is subcutaneously inoculated into the oxter area of the BALB/c mice. 7 days after inoculation, inject the Agrocybe aegerita lectin AAL-2 by in situ tumour (protein isolated in example 1) (5 mg/kg, 0.1 ml/mouse). The control group is treated with 0.9% NaCl. Then take the injection every other day, a total of 7 injections, and record the size of the tumor tissue in mice. Tumor size=tumor tissue length L×width W^2/2.

[2] = Carbohydrate binding specificity by glycochip technology; details: biotin labeled AAL-2, 200 μg/mL
Protocol: (§2) In order to identify the carbohydrate binding activity of Agrocybe aegerita lectin AAL-2, the Agrocybe aegerita lectin AAL-2 is used to detect 465 kinds of carbohydrate by the glycochip technology.
(§3) Firstly, the purified Agrocybe aegerita lectin AAL-2 (isolated in example 1) is labeled with the biotin and 200 μg/mL AAL-2 incubates the glycochip, then the fluorescein labeled streptavidin combines with the biotin labeled AAL-2. Results are shown in Table 4 (different carbohydrate affinity of AAL-2 arranged from high to low (top of 23 carbohydrates)).

[3] = Glycochip binding, glycan 336
Protocol: as §2, §3

[4] = Glycochip binding, glycan 171
Protocol: as §2, §3

[5] = Glycochip binding, glycan 175
Protocol: as §2, §3

[6] = Glycochip binding, glycan 339
Protocol: as §2, §3

[7] = Glycochip binding, glycan 179
Protocol: as §2, §3

[8] = Glycochip binding, glycan 172
Protocol: as §2, §3

[9] = Glycochip binding, glycan 337
Protocol: as §2, §3

[10] = Glycochip binding, glycan 181
Protocol: as §2, §3

[11] = Glycochip binding, glycan 180
Protocol: as §2, §3

[12] = Glycochip binding, glycan 338
Protocol: as §2, §3

[13] = Glycochip binding, glycan 341
Protocol: as §2, §3

[14] = Glycochip binding, glycan 308
Protocol: as §2, §3

[15] = Glycochip binding, glycan 94
Protocol: as §2, §3

[16] = Glycochip binding, glycan 340
Protocol: as §2, §3

[17] = Glycochip binding, glycan 88
Protocol: as §2, §3

[18] = Glycochip binding, glycan 182
Protocol: as §2, §3

[19] = Glycochip binding, glycan 178
Protocol: as §2, §3

[20] = Glycochip binding, glycan 407
Protocol: as §2, §3

[21] = Glycochip binding, glycan 309; details: glycan number 309; 200 μg/mL AAL-2
Protocol: as §2, §3

[22] = Glycochip binding, glycan 176; details: glycan number 176; 200 μg/mL AAL-2
Protocol: as §2, §3

[23] = Glycochip binding, glycan 177; details: glycan number 177; 200 μg/mL AAL-2
Protocol: as §2, §3

[24] = Glycochip binding, glycan 190; details: glycan number 190; 200 μg/mL AAL-2
Protocol: as §2, §3

[25] = Glycochip binding, glycan 17; details: glycan number 17; 200 μg/mL AAL-2
Protocol: as §2, §3

[26] = rank of affinity, carbohydrate spectrum of AAL-2

B1: AAL-2: new lectin isolated from Agrocybe aegerita total protein by affinity chromatography; amino acid sequence SEQ ID NO: 2; 43 kDa monomer (protein, listed as Agrocybe aegerita)
chain: MTSNVITQDLPIPVASRGFADIVGFGLDGVVIGRNAVNLQPFLAVKNFAQNAGGWLTTKHVRLIADTTGTGKGDIVGFGNAGVYVSVNNGKNTFADPPKMVIANFGYDAGGWRVEKHLRYLADIRKIGRADIIGFGEKGVLVSRNNGGLNFGPATLVLKDFGYDAGGWRLDRHLRFLADVTGNGHLDIVGFGDKHVFISRNNGDGTFAPAKSVIDNFCIDAGGWKIGDHPRFVADLTGDGTADIIGCGKAGCWVALNNGGGVFGQVKLVINDFGTDKGWQAAKHPRFIADLTGNGRGDVVGFGNAGVYVALNNGDGTFQSAKLVLKDFGVQQGWTVSKHRRFVVDLTGDGCADIIGFGEKETLVSYNDGKGNFGPVKALTNDFSFSGGKWAPETTVCWMANLDSSRH
Question: Which results are given for B1?
Answer: apoptosis of H22 cells (H22): apoptosis inducing activity depends on the concentration; also recorded: significantly cause two hepatoma cell lines apoptosis; apoptosis of Huh7 cells (Huh7): apoptosis inducing activity depends on the concentration; also recorded: significantly cause two hepatoma cell lines apoptosis; tumor growth (tumor size) ([1]; FIG. 7A): significantly inhibited; also recorded: inhibit the tumor growth; survival time of tumor bearing mice ([1]; FIG. 7B): prolonged obviously; also recorded: prolong the survival time; carbohydrate binding specificity [2]: specifically preferentially bind to carbohydrates with N-Acetylglucosamine as the terminal; average ([3]; glycan number 336, 200 μg/mL AAL-2): 30519; order (glycosyl structure affinity of top 18) [3, 26]: 1; average ([4]; glycan number 171, 200 μg/mL AAL-2): 24487; order (glycosyl structure affinity of top 18) [4, 26]: 2; average ([5]; glycan number 175, 200 μg/mL AAL-2): 21115; order (glycosyl structure affinity of top 18) [5, 26]: 3; average ([6]; glycan number 339, 200 μg/mL AAL-2): 20868; order (glycosyl structure affinity of top 18) [6, 26]: 4; average ([7]; glycan number 179, 200 μg/mL AAL-2): 19530; order (glycosyl structure affinity of top 18) [7, 26]: 5; average ([8]; glycan number 172, 200 μg/mL AAL-2): 19311; order (glycosyl structure affinity of top 18) [8, 26]: 6; average ([9]; glycan number 337, 200 μg/mL AAL-2): 19030; order (glycosyl structure affinity of top 18) [9, 26]: 7; average ([10]; glycan number 181, 200 μg/mL AAL-2): 18737; order (glycosyl structure affinity of top 18) [10, 26]: 8; average ([11]; glycan number 180, 200 μg/mL AAL-2): 17289; order (glycosyl structure affinity of top 18) [11, 26]: 9; average ([12]; glycan number 338, 200 μg/mL AAL-2): 16141; order (glycosyl structure affinity of top 18) [12, 26]: 10; average ([13]; glycan number 341, 200 μg/mL AAL-2): 11672; order (glycosyl structure affinity of top 18) [13, 26]: 11; average ([14]; glycan number 308, 200 μg/mL AAL-2): 11572; order (glycosyl structure affinity of top 18) [14, 26]: 12; average ([15]; glycan number 94, 200 μg/mL AAL-2): 11198; order (glycosyl structure affinity of top 18) [15, 26]: 13; average ([16]; glycan number 340, 200 μg/mL AAL-2): 8758; order (glycosyl structure affinity of top 18) [16, 26]: 14; average ([17]; glycan number 88, 200 μg/mL AAL-2): 8504; order (glycosyl structure affinity of top 18) [17, 26]: 15; average ([18]; glycan number 182, 200 μg/mL AAL-2): 8464; order (glycosyl structure affinity of top 18) [18, 26]: 16; average ([19]; glycan number 178, 200 μg/mL AAL-2): 7339; order (glycosyl structure affinity of top 18) [19, 26]: 17; average ([20]; glycan number 407, 200 μg/mL AAL-2): 6992; order (glycosyl structure affinity of top 18) [20, 26]: 18; average [21]: 6078; average [22]: 5896; average [23]: 5782; average [24]: 5571; average [25]: 5331
